Substitutions are numbered along the chain they refer to. In names and notes the source's numbering stands. Entries after “also recorded” stand apart in the source; their conditions may differ. Ends that are not written are not given here. Peptide text beside a SMILES is read from it. * marks the point of attachment. Biotin = O=C1N[C@H]2[C@H](CS[C@H]2CCCCC(=O)*)N1
T1: MYC4 N-terminal domain (L55-N253; MYC4Nt) (Arabidopsis thaliana, UniProt O49687)
T1 construct: MYC4 N-terminal domain (L55-N253; MYC4Nt) using a C-terminal 6×His tag; made in house; host or cells: Escherichia coli BL21(DE3), pET52u plasmid
T1 sequence (O49687 55-253): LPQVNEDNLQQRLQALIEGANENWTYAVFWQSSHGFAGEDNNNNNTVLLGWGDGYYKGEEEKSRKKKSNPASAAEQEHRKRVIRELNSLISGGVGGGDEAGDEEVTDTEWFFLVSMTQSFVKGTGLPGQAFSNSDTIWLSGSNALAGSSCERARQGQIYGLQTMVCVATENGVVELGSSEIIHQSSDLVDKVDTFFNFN

B1: L190A: mutated MYB29 (AAs 120-222); MIM sequence - S TS KL ANK VA ARA SS - (protein)
chain: GIDPVTHKPLAYDSNPDEQSQSGSISPKSLPPSSSKNVPEITSSDETPKYDASLSSKKRCFKRSSSTSKLANKVAARASSMGTILGASIEGTLISSTPLSSCL
modifications: left off: NubG and FRB (from the vector pFRB), end not stated, kept
B2: A194L: mutated MYB29 (AAs 120-222); MIM sequence - S TS KL LNK VL ARA SS - (protein)
chain: B1 chain with A71L, A75L
modifications: left off: NubG and FRB (from the vector pFRB), end not stated, kept
B3: N191A: mutated MYB29 (AAs 120-222); MIM sequence - S TS KL LAK VA ARA SS - (protein)
chain: B1 chain with A71L, N72A
modifications: left off: NubG and FRB (from the vector pFRB), end not stated, kept
B4: A194G: mutated MYB29 (AAs 120-222); MIM sequence - S TS KL LNK VG A RA SS - (protein)
chain: B1 chain with A71L, A75G
modifications: left off: NubG and FRB (from the vector pFRB), end not stated, kept
B5: WT: MYB29 (AAs 120-222); MIM sequence - S TS KL LNK VA ARA SS - (protein)
chain: MSRKPCCVGEGLKKGAWTAEEDKKLISYIHEHGEGGWRDIPQKAGLKRCGKSCRLRWANYLKPDIKRGEFSYEEEQIIIMLHASRGNKWSVIARHLPKRTDNEIKNYWNTHLKKLLIDKGIDPVTHKPLAYDSNPDEQSQSGSISPKSLPPSSSKNVPEITSSDETPKYDASLSSKKRCFKRSSSTSKLLNKVAARASSMGTILGASIEGTLISSTPLSSCLNDDFSETSQFQMEEFDPFYQSSEHIIDHMKEDISINNSEYDFSQFLEQFSNNEGEEADNTGGGYNQDLLMSDVSSTSVDEDEMMQNITGWSNYLLDHSDFNYDTSQDYDDKNFI
modifications: left off: NubG and FRB (from the vector pFRB), end not stated, kept
B6: MYB75: full-length MYB75 (MYB subgroup 6), control prey for GL3 (protein)
chain: MEGSSKGLRKGAWTTEEDSLLRQCINKYGEGKWHQVPVRAGLNRCRKSCRLRWLNYLKPSIKRGKLSSDEVDLLLRLHRLLGNRWSLIAGRLPGRTANDVKNYWNTHLSKKHEPCCKIKMKKRDITPIPTTPALKNNVYKPRPRSFTVNNDCNHLNAPPKVDVNPPCLGLNINNVCDNSIIYNKDKKKDQLVNNLIDGDNMWLEKFLEESQEVDILVPEATTTEKGDTLAFDVDQLWSLFDGETVKFD
modifications: left off: NubG and FRB (from the vector pFRB), end not stated, kept
notes: full-length MYB75 (MYB subgroup 6), control prey for GL3

Experiments:
[1] = molecular target: T1, MYC4 N-terminal domain (L55-N253; MYC4Nt); test: Bio-layer interferometry, binding of MYC4Nt to immobilised biotinylated MIM peptides; conditions: for binding of MYC4Nt to immobilised peptide (in words): BLI, peptide immobilised on streptavidin biosensor, MYC4Nt dilution series
Procedure: Single colonies of freshly transformed Escherichia coli BL21(DE3), carrying the pET52u plasmid for expressing MYC4 N-terminal domain (AA55-253; MYC4Nt) with a C-terminal 6×His tag, were inoculated in LB with ampicillin and grown overnight (37°C, 200 RPM). The next day, the culture was diluted to OD600 = 0.2 with cold (4°C) LB with ampicillin and grown at 18°C (100 RPM) in a baffled Erlenmeyer flask until OD600 = 1.0 (∼7.5 h). Protein expression was induced by addition of 0.1 mM IPTG, and the cultures grew for further 18 h at 18°C (100 RPM), before harvesting the cells by centrifugation (4000 g, 20 min), and storing the bacterial pellet at −20°C until protein extraction and purification. For extraction and purification, the bacterial pellet was resuspended in BugBuster Master Mix (Merck Millipore), 2.5 ml per 50 ml bacterial culture, containing 1× ethylenediaminetetraacetic acid-free complete protease inhibitor cocktail (Roche) and 1 mM dithiothreitol (DTT). Lysis proceeded by slow end-over-end rotation at room temperature for 30 min, and the lysate was cleared by centrifugation (20.000 g, 20 min, 4°C). The supernatant was diluted five times with His binding buffer (20 mM sodium phosphate, 500 mM NaCl, 40 mM imidazole, 1 mM DTT, pH 7.4) and filtered through a 0.2-micron filter using a syringe, before applying to a HisTrap HP 5 ml (GE Healthcare) IMAC column charged with Ni(II)Cl2. After washing thoroughly, bound protein was eluted with a linear buffer gradient to elution buffer (His binding buffer with 500 mM imidazole) over 20 column volumes, and 1.9 ml fractions collected in a 96-deepwell plate. Based on absorbance at 280 nm during elution, fractions were selected for analysis by sodium dodecyl sulphate-polyacrylamide gel electrophoresis and those fractions showing only the band of the recombinant protein at 22.7 kDa were pooled and concentrated using 3-kDa cut-off PES membrane ultrafiltration centrifugal tubes (Thermo Scientific™ Pierce). Concentrated protein was centrifuged at 20 000 g, 4°C for 10 min before being dialysed overnight to PBS pH 7.4 with 1 mM DTT. Protein concentration was estimated using the Lambert–Beer law based on absorbance at 280 nm, after blanking with the dialysis buffer (dialysate) and protein was stored in aliquots at −80°C. Aliquots of dialysate were stored at −20°C.
Biotinylated peptides were synthesized by TAG Copenhagen A/S (Copenhagen, Denmark). Lyophilized peptide was resuspended in H2O to a concentration of 400–500 μM and stored in aliquots at −80°C. […] Binding was measured with a BLItz Bio-Layer Interferometer (Pall ForteBio) using the advanced kinetics program in the BLItz Pro 1.2 software. […]

MYC3 = test: Split-ubiquitin assay, MYC3 as bait; type: cell-based, Arabidopsis thaliana; conditions: yeast, SD-AHLW growth
Procedure: (§1) The rapamycin-compatible yeast strain NMY51 TOR1-1 Δfpr1 ([35]) was transformed according to DUALhunter™ kit instructions (Dualsystems biotech). Briefly, overnight 2×YPAD cultures were diluted to OD600 = 0.2, and incubated at 30°C, 150 RPM for 4–6 h in 2×YPAD, before harvesting the cells by centrifugation at 700 g for 5 min. The cells were washed with H2O, then 0.1 M LiOAc, before resuspending in 0.1 M LiOAc with 15% glycerol. The competent cells were then aliquoted and stored at −80°C until transformation. For double transformation with bait and prey plasmids, competent cells were thawed on ice, and mixed with transformation mix (240 μl 50% PEG-3350, 35 μl 1 M LiOAc and 25 μl 2 mg/ml ssDNA per transformation) and 200 ng of each plasmid, before being exposed to a 42°C heat shock in a water bath for 45 min. The cells were then chilled on ice for a few minutes, sedimented by centrifugation (3000 g, 1 min), resuspended in sterile H2O, plated on SD-LW plates and grown at 30°C for 2–3 days.
(§2) For drop tests, cells from three individual colonies of each bait/prey combination were grown overnight in liquid SD-LW media. Next day, culture densities were normalized to OD600 = 0.05, dilution series (OD600 = 0.05, OD600 = 0.005, OD600 = 0.0005 and OD600 = 0.00005) were spotted on square plates (SD-LW, SD-AHLW and SD-AHLW+Rapa) and grown for 2 days at 30°C before taking pictures.
(§3) To identify interaction sites mediating specific MYB–MYC complex formation, we selected two TFs from each family. These were MYB28 and MYB29 from MYB subgroup 12, and two of their partner bHLH TFs, MYC3 and MYC4. To define the region mediating the interactions we applied a chemically inducible dimerization split-ubiquitin system ([35]). […] This is used as an in-built positive control for correct expression and functionality of the prey fusion protein and thereby reduces the incidence of false negatives.

MYC4 = test: Split-ubiquitin assay, MYC4 as bait; type: cell-based, Arabidopsis thaliana; conditions: yeast, SD-AHLW growth
Procedure: as §1, §2, §3

GL3 = test: Split-ubiquitin assay, GL3 as bait; type: cell-based, Arabidopsis thaliana; conditions: yeast, SD-AHLW growth
Procedure: as §1, §2, §3

Molecule | binding of MYC4Nt to immobilised peptide (in words) [1] | interaction with MYC3 (in words) (MYC3) | interaction with MYC4 (in words) (MYC4) | other results
CSCC[C@H](NC(=O)[C@H](CO)NC(=O)[C@H](CO)NC(=O)[C@H](C)NC(=O)[C@H](CCCNC(=N)N)NC(=O)[C@H](C)NC(=O)[C@H](C)NC(=O)[C@@H](NC(=O)[C@H](CCCCN)NC(=O)[C@H](CC(N)=O)NC(=O)[C@@H](NC(=O)[C@H](CC(C)C)NC(=O)[C@H](CCCCN)NC(=O)[C@H](CO)NC(=O)[C@@H](NC(=O)[C@H](CO)NC(=O)[C@H](CO)NC(=O)[C@H](CO)NC(=O)[C@H](CCCNC(=N)N)NC(=O)[C@H](CCCCN)NC(=O)[C@H](Cc1ccccc1)NC(=O)CCCC[C@@H]1SC[C@@H]2NC(=O)N[C@@H]21)[C@@H](C)O)C(C)C)C(C)C)C(=O)NCC(=O)O [L190V-MIM] (Biotin-FKRSSSTSKLVNKVAARASSMG-OH) | a strong binding signal, but at higher concentrations of MYC4Nt (>10 μM), than was necessary for the WT-MIM | – | – | affinity for MYC4Nt weaker than WT-MIM peptide ([1]; estimated, relative to WT-MIM peptide): ~10 fold
CSCC[C@H](NC(=O)[C@H](CO)NC(=O)[C@H](CO)NC(=O)[C@H](C)NC(=O)[C@H](CCCNC(=N)N)NC(=O)[C@H](C)NC(=O)[C@H](C)NC(=O)[C@@H](NC(=O)[C@H](CCCCN)NC(=O)[C@H](CC(N)=O)NC(=O)[C@H](CC(C)C)NC(=O)[C@H](CC(C)C)NC(=O)[C@H](CCCCN)NC(=O)[C@H](CO)NC(=O)[C@@H](NC(=O)[C@H](CO)NC(=O)[C@H](CO)NC(=O)[C@H](CO)NC(=O)[C@H](CCCNC(=N)N)NC(=O)[C@H](CCCCN)NC(=O)[C@H](Cc1ccccc1)NC(=O)CCCC[C@@H]1SC[C@@H]2NC(=O)N[C@@H]21)[C@@H](C)O)C(C)C)C(=O)NCC(=O)O [WT-MIM] (Biotin-FKRSSSTSKLLNKVAARASSMG-OH) | binding of MYC4Nt was observed even at sub micro molar concentrations; also recorded: stronger binding of the WT-MIM peptide compared to that of the L190V-MIM peptide | – | – | –
L190A-MIM: N-terminally biotinylated 22-residue peptide comprising the L190A MIM sequence of MYB29 (F180-G201) (Biotin-FKRSSSTSKLANKVAARASSMG) | Fit cannot converge; also recorded: an extremely weak response was seen only at high (>100 μM) concentrations of MYC4Nt; also recorded: the fit did not converge; also recorded: unable to detect binding | – | – | –
B1 | – | abolished the interaction | abolished the interaction | –
B2 | – | abolished the interaction with both MYC3 and MYC4 | abolished the interaction with both MYC3 and MYC4 | –
B3 | – | abolished the interaction | abolished the interaction | –
B4 | – | did not abolish the interaction | did not abolish the interaction | –
B5 | – | interacted with both MYC3 and MYC4 | interacted with both MYC3 and MYC4 | –
B6 | – | – | – | interaction with GL3 (in words) (GL3): results in growth on SD-AHLW plates

— paper PMC6765112, “Specificity of MYB interactions relies on motifs in ordered and disordered contexts” (Nucleic Acids Research, 2019)
